Data taken from PMC2132719.

Target: NLS-HSA (SV-40 large T antigen NLS peptide coupled to human serum albumin) (human | SV-40) (UniProt P02768)
Experiment: pull-down

- percent of the protein in the extract bound: < 1%
Substance: Xenopus Nup62 (natural protein)
